Test results from publication PMC8617076, “Structure of HIV-1 Vpr in complex with the human nucleotide excision repair protein hHR23A” (Nature Communications, 2021).

T1: Trx-hHR23AFL (human, UniProt P54725 1-363)
T1 construct: human hHR23A, full length (FL); source: E. coli Rosetta 2 (DE3) or Rosetta 2 (DE3) pLysS, purified (HisTrap, gel filtration)
T1 sequence (looked up): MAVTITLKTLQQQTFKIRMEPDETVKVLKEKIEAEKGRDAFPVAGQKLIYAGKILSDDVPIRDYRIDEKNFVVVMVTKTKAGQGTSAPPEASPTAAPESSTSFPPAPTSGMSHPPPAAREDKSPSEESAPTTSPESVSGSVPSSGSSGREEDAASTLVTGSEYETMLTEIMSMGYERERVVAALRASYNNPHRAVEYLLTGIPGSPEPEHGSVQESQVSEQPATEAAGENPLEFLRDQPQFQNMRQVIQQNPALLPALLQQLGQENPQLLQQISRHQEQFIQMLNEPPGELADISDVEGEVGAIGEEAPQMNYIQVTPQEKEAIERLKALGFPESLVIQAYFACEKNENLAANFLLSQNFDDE

T2: GST-hHR23B, residues 1–409 (human, UniProt P54727 1-409)
T2 construct: human hHR23B, residues 1–409; source: recombinant
T2 sequence (looked up): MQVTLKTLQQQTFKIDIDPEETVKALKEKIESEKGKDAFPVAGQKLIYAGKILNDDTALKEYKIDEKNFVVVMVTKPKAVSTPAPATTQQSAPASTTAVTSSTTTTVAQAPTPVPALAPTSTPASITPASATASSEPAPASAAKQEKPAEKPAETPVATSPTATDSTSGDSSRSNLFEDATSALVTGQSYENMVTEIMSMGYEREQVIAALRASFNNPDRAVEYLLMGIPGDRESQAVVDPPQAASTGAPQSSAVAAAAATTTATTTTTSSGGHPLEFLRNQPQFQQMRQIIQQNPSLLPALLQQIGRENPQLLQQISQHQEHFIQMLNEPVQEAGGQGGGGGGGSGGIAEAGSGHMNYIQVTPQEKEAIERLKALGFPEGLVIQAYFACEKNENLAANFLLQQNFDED

T3: GST-hHR23A, residues 1–363 (WT hHR23AFL) (human, UniProt P54725 1-363)
T3 construct: human hHR23A, full length, residues 1–363; also called GST-tagged WT hHR23A; source: recombinant
T3 sequence (looked up): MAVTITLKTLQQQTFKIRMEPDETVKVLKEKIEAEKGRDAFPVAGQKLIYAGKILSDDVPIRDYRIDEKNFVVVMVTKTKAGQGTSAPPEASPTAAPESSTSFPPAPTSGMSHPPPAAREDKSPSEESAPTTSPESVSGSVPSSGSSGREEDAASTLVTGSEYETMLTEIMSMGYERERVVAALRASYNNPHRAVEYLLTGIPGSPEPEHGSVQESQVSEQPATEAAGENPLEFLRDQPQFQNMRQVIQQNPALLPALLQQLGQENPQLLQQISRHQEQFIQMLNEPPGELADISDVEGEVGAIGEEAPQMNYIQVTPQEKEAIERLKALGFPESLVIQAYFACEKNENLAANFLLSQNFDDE

T4: GST-hHR23B, residues 262–409 (human, UniProt P54727 262-409)
T4 construct: human hHR23B, residues 262–409; also called C-terminal half of hHR23B; source: recombinant
T4 sequence (looked up): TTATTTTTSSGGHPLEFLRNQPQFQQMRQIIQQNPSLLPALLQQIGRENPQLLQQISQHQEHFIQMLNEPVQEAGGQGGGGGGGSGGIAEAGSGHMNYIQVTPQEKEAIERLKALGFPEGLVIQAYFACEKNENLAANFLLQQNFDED


Tests used:
Details in all cases: both partners purified
[1] = biological target: T5, DCAF1_(1045–1396)/DDB1 (UniProt Q9Y4B6 1045-1396; Q16531 1-1140); assay: ITC; NusA–Vpr1–79 (8.5 µM) in the cell, Trx-hHR23AFL or DCAF1 1045–1396/DDB1 (100 μM) added in aliquots; 18 °C; 20 mM sodium phosphate pH 7.4, 100 mM NaCl
T5 construct: DCAF1, residues 1045-1396; DDB1
T5 sequence (Q9Y4B6 1045-1396, chain 1 of 2): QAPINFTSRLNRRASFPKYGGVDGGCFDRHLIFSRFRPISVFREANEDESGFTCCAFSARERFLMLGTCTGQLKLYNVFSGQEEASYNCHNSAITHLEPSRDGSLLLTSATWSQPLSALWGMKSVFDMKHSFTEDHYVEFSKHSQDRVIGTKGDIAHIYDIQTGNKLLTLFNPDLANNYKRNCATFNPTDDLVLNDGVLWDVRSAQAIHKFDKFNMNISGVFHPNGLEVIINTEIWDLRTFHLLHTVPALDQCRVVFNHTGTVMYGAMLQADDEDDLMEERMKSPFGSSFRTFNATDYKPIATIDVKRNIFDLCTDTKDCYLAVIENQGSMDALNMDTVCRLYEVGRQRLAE
T5 sequence (Q16531 whole entry, chain 2 of 2, the tested form may be a part): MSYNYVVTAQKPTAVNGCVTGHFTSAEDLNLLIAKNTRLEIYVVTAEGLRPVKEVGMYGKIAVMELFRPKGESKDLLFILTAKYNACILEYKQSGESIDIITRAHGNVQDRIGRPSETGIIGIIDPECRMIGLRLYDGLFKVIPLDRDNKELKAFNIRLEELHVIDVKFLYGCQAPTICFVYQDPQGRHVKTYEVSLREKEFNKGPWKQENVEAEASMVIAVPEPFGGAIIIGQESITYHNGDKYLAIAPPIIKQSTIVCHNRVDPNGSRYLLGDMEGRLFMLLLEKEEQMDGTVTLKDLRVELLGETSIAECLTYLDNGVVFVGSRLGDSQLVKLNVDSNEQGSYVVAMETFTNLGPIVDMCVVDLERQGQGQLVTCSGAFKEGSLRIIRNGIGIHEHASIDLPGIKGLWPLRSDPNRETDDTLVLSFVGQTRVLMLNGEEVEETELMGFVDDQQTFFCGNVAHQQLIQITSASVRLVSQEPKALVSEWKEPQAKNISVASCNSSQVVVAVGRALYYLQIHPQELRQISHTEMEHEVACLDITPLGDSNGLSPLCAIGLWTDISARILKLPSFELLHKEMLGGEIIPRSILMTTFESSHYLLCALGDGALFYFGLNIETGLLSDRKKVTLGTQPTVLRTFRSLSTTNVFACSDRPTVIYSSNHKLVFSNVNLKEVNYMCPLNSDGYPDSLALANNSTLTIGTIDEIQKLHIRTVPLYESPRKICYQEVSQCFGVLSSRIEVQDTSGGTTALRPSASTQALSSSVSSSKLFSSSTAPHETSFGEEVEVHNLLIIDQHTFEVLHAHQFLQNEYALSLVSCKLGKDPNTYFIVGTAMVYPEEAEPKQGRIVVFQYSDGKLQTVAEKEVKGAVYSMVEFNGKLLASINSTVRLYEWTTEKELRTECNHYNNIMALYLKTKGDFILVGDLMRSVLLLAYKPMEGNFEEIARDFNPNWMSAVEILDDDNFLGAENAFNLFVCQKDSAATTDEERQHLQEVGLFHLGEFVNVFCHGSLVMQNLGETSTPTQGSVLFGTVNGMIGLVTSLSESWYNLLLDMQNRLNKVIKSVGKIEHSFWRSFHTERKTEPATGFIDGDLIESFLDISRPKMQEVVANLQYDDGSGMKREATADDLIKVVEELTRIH

[2] = biological target: T1, Trx-hHR23AFL; assay: as above
[3] = biological target: T2, GST-hHR23B, residues 1–409; assay: pull-down; 1000 pmol GST-tagged hHR23A/B and 1000 pmol NusA–VprFL in 500 μl PBS, 30 min 4 °C; TEV cleavage overnight at 4 °C; Glutathion-Sepharose 4B beads; anti-His immunoblot
[4] = biological target: T3, GST-hHR23A, residues 1–363 (WT hHR23AFL); assay: as above
[5] = biological target: T4, GST-hHR23B, residues 262–409; assay: as above

Binder | binding result [4] | other results
NusA–Vpr_(1–79) (domain or fragment, HIV-1 Vpr, residues 1-79; source: E. coli Rosetta 2 (DE3) or Rosetta 2 (DE3) pLysS, purified (HisTrap, gel filtration)) MEQAPEDQGPQREPYNEWTLELLEELKSEAVRHFPRIWLHNLGQHIYETYGDTWAGVEAIIRILQQLLFIHFRIGCRHS | – | Kd [1]: 116 ± 47 nM; Kd [2]: 640 ± 408 nM
recombinant VprFL (from NusA–VprFL) (natural protein, HIV-1 Vpr, full length (FL); also called VprFL WT; source: recombinant NusA–VprFL) MEQAPEDQGPQREPYNEWTLELLEELKSEAVRHFPRIWLHNLGQHIYETYGDTWAGVEAIIRILQQLLFIHFRIGCRHSRIGVTRQRRARNGASRS | binds | binding result [3]: binds; binding result [5]: binds
recombinant VprFL R73A (natural protein, HIV-1 Vpr, full length, with R73A; source: recombinant NusA–VprFL) MEQAPEDQGPQREPYNEWTLELLEELKSEAVRHFPRIWLHNLGQHIYETYGDTWAGVEAIIRILQQLLFIHFAIGCRHSRIGVTRQRRARNGASRS | binds | –
recombinant VprFL L67A/I70A (natural protein, HIV-1 Vpr, full length, with L67A and I70A; also called L67A/I70A double mutant; source: recombinant NusA–VprFL) MEQAPEDQGPQREPYNEWTLELLEELKSEAVRHFPRIWLHNLGQHIYETYGDTWAGVEAIIRILQQALFAHFRIGCRHSRIGVTRQRRARNGASRS | binds | –
recombinant VprFL H45A (natural protein, HIV-1 Vpr, full length, with H45A; source: recombinant NusA–VprFL) MEQAPEDQGPQREPYNEWTLELLEELKSEAVRHFPRIWLHNLGQAIYETYGDTWAGVEAIIRILQQLLFIHFRIGCRHSRIGVTRQRRARNGASRS | binds | –
recombinant VprFL Y50S (natural protein, HIV-1 Vpr, full length, with Y50S; source: recombinant NusA–VprFL) MEQAPEDQGPQREPYNEWTLELLEELKSEAVRHFPRIWLHNLGQHIYETSGDTWAGVEAIIRILQQLLFIHFRIGCRHSRIGVTRQRRARNGASRS | binds | –
